Reference: patent US11708423B2, “Chimeric engulfment receptor molecules and methods of use” (CERO THERAPEUTICS, INC., priority 2017, dated 2023)

Tests used:
[1] = system: Racl; assay: Racl activation (PAK-PBD pull-down, immunoblot) in CER-transduced Ba/F3 cells; format: cell-based; conditions: 2 hours co-culture with thymocytes, compared to CER21
Description: The Rho family of GTPases play essential roles in actin assembly during phagocytosis. Inhibition of either Rho GTPase Racl or CDC42 in macrophages results in a complete blockade of FcR-mediated phagocytosis due to defective actin assembly. To investigate induction of phagocytic signal transduction cascades, CER-expressing cells were interrogated for the activation of CDC42 and Racl. […] Ba/F3 cells were transduced with lentiviral vectors comprising CER21 nucleic acid, CER116 nucleic acid, or vector alone (mock). Target thymocyte cells were stained with pHrodo red. CER-transduced Ba/F3 cells were co-cultured with dexamethasone pre-treated thymocytes for 2 hours. The Racl inhibitor NSC23766 (Selleck Chem) was added during the co-culture in appropriate wells. Cells were then collected, solubilized in lysis buffer, and immunoprecipitation was performed on protein lysates to detect phospho-Racl using PAK-PBD agarose beads (Cytoskeleton, Inc.). Immunoprecipitates were eluted and 25 μg of protein was loaded onto SDS-PAGE gradient gels and then probed with monoclonal, mouse anti-Racl primary antibody (Cytoskeleton Inc.) overnight at 4° C., washed, and hybridized with secondary, anti-mouse antibody conjugated to horseradish peroxidase (Jackson Labs) (FIG. 85A). […] Protein gel bands were quantified using ImageJ image processing program, and the proportion of activated Racl was quantified (FIG. 85B). […]

[2] = system: pHrodo-red labeled, dexamethasone treated thymocytes; assay: Luminal degradation of engulfed thymocytes in CER-transduced Ba/F3 cells (time-lapse imaging); format: cell-based
Method: Luminal degradation in CER-transduced cells was also evaluated following engulfment. Ba/F3 cells transduced with CER21 or CER116 were co-cultured with pHrodo-red labeled, dexamethasone treated thymocytes overnight and subsequently purified by FACS. Target cell destruction was visualized by time-lapse imaging and quantified over time (FIG. 85F). […] CER116-harboring Ba/F3 cells (top) catabolize target cells, allowing cells to return to homeostasis and resume immune responsiveness. The addition of a TRAF6 signaling domain to the CER construct promotes rapid destruction of engulfed material.

[3] = system: CER-transduced CD4+ T cells; assay: Mass cytometry (CyTOF) with viSNE marker analysis of CER-transduced CD4+ T cells; format: cell-based, human
Description: CD4+ T cells were transduced with lentiviral vector comprising CER104, CER116, or CER117 nucleic acid. CER104 (SEQ ID NO:133) comprises a Tim4 binding domain, Tim4 transmembrane domain, and an engulfment signaling domain comprising a primary engulfment signaling domain comprising a TLR8 signaling domain and a secondary engulfment signaling domain comprising a DAP12 signaling domain. CER116 (SEQ ID NO:143) comprises a Tim4 binding domain, Tim4 transmembrane domain, and an engulfment signaling domain comprising a primary engulfment signaling domain comprising a TRAF6 signaling domain and a secondary engulfment signaling domain comprising a TLR8 signaling domain. CER117 (SEQ ID NO:144) comprises a Tim4 binding domain, Tim4 transmembrane domain, and an engulfment signaling domain comprising a primary engulfment signaling domain comprising a TLR8 signaling domain and a secondary engulfment signaling domain comprising a TRAF6 signaling domain. CER-transduced CD4+ T cells were co-cultured with E7 TCR-transduced CD8+ T cells and HPV+SCC152 target cells and interrogated by mass cytometry (CyTOF) with viSNE for visualization of high dimensional single cell data (FIGS. 82-84). Intact CER-transduced CD4+ T cells are shown in plots displaying tSNE1 (horizontal) and tSNE2 (vertical) axes. 27 intracellular markers were used for the viSNE analysis. Each dot represents a single cell. […] Red represents high expression and blue represents low expression for each marker. Populations of CD4^+ T cells were generated using a clustering algorithm from all 27 markers and overlaid onto the viSNE map. […] Populations of CD4^+ T cells were generated using a clustering algorithm from all 18 markers and overlaid onto the viSNE map (FIG. 83A). […] Color plots by 18 intracellular markers (CD28, CCR7, CD45RA, PD1, CD127, Perforin, CD49d, CD85j, CD38, CD27, Granzyme B, CD57, CD25, CD69, CD154, CD56, HLA-DR, and TCRγδ) show the phenotype across viSNE ‘islands’ (FIG. 83B). Red represents high expression and blue represents low expression for each marker. Highlighted region with arrow indicates cells expressing T cell activation marker CD69. Populations of CD4^+ T cells were generated using a clustering algorithm from 18 intracellular markers (CD28, CCR7, CD45RA, PD1, CD127, Perforin, CD49d, CD85j, CD38, CD27, Granzyme B, CD57, CD25, CD69, CD154, CD56, HLA-DR, and TCRγ6) and overlaid onto the viSNE map. […] Color plots by the 18 intracellular markers show the phenotype across viSNE ‘islands’ (FIG. 84B). Red represents high expression and blue represents low expression for each marker. Highlighted region with arrow indicates cells expressing the naïve T cell marker CD45RA.

B1: CER116: Tim4 binding and transmembrane domains, TRAF6 primary and TLR8 secondary signaling domains; SEQ ID NO:143 (protein)
chain: MSKGLLLLWLVTELWWLYLTPAASEDTIIGFLGQPVTLPCHYLSWSQSRNSMCWGKGSCPNSKCNAELLRTDGTRIISRKSTKYTLLGKVQFGEVSLTISNTNRGDSGVYCCRIEVPGWFNDVKKNVRLELRRATTTKKPTTTTRPTTTPYVTTTTPELLPTTVMTTSVLPTTTPPQTLATTAFSTAVTTCPSTTPGSFSQETTKGSAFTTESETLPASNHSQRSMMTISTDIAVLRPTGSNPGILPSTSQLTTQKTTLTTSESLQKTTKSHQINSRQTILIIACCVGFVLMVLLFLAFLMSLLNCENSCGSSQSESDCCVAMASSCSAVTKDDSVGGTASTGNLSSSFMEEIQGYDVEFDPPLESKYECPICLMALREAVQTPCGHRFCKACIIKSIRDAGHKCPVDNEILLENQLFPDNFAKREILSLMVKCPNEGCLHKMELRHLEDHQAHCEFALMDCPQCQRPFQKFHINIHILKDCPRRQVSCDNCAASMAFEDKEIHDQNCPLANVICEYCNTILIREQMPNHYDLDCPTAPIPCTFSTFGCHEKMQRNHLARHLQENTQSHMRMLAHHLFYWDVWFIYNVCLAKVKGYRSLSTSQTFYDAYISYDTKDASVTDWVINELRYHLEESRDKNVLLCLEERDWDPGLAIIDNLMQSINQSKKTVFVLTKKYAKSWNFKTAFYLALQRLMDENMDVIIFILLEPVLQHSQYLRLRQRICKSSILQWPDNPKAEGLFWQTLRNVVLTENDSRYNNMYVDSIKQY
modifications: CER116 protein
Racl signaling (proportion of activated Racl) [1]: enhanced Racl signaling | time to near complete resolution of luminal contents [2]: ≤ 36 h | luminal content degradation over time ([2]; FACS purified after overnight co-culture): enhanced CER116 luminal content degradation over time | memory formation after antigen encounter ([3]; CD4+ T cells): associated with memory formation after antigen encounter | viSNE islands expressing T cell activation marker CD69 ([3]; CD4+ T cells after antigen encounter): enrichment of islands expressing the T cell activation marker CD69 | viSNE islands expressing intracellular marker IFNγ ([3]; CD4+ T cells after co-culture with E7 TCR CD8+ T cells and SCC152 cells): enrichment of islands expressing the intracellular marker IFNγ | viSNE islands expressing naïve T cell marker CD45RA within the CCR7+ population ([3]; compared to controls): loss of islands expressing the naïve T cell marker CD45RA
